Assay: soluble on expression in E. coli; label from the status in PepcDB or PDB records

| Sequence | soluble on expression in E. coli |
| --- | --- |
| MAAKIPGVIALFDVDGTLTAPRKEATPELLDFIRELRKVVTIGVVGGSDLSKISEQLGKTVTNDYDYCFSENGLVAHKDGKSIGIQSLKLHLGDDKLKELINFTLHYIADLDIPIKRGTFIEFRNGMLNVSPIGRNCSQEERDEFERYDKVQNIRPKMVAELRERFAHLNLTFSIGGQISFDVFPKGWDKTYCLQYLEDFSEIHFFGDKTYEGGNDYEIYESPKTIGHSVTSPDDTVAKCKALFMS | soluble |
| MAALTASCIDLNIQGNGAYSVLKQLATIALQNGFITDSHQFLQTLLLREKMHSTGFGSGVAVPHGKSACVKQPFVLFARKAQAIDWKASDGEDVNCWICLGVPQSGEEDQVKIIGTLCRKIIHQEFIHQLQQGDTDQVLALLNQTLSS | not soluble |
| MAASIELFEQNGFSETSIQDIVDALGVTKGTFYYYFTSKEELLMDIHLRYIERLLDEEERIISDKRRSVQEKLYDIIFMLIHNVERQGREARIFFREMKHLNEEHLQKVKEKRDLFRYRLQSLIEEGMKSGELRCDLSPSIATLTVLGAANWSYQWFRPDGELTDAEVAKQMVEILLDGMSAPSVSKAE | not soluble |
| MAAYKLVLIRHGESAWNLENRFSGWYDADLSPAGHEEAKRGGQALRDAGYEFDICFTSVQKRAIRTLWTVLDAIDQMWLPVVRTWRLNERHYGGLTGLNKAETAAKHGEAQVKIWRRSYDVPPPPMEPDHPFYSNISKDRRYADLTEDQLPSCESLKDTIARALPFWNEEIVPQIKEGKRVLIAAHGNSLRGIVKHLEGLSEEAIMELNLPTGIPIVYELDKNLKPIKPMQFLGDEETVRKAMEAVAAQGKAKK | soluble |
| MAAYYRWKSFEENEDRPEKPRRYGVTEMRGPHYSVLSQNLLQEIFESMGQFVDGLKFSGGSNSLIPKSFIKQAIEMAHEHGVYVSTGDWAEHMLRSGPSAFKDYVEECKQLGFDTIELNANLLEVPEETLLRYVRLIKNGGLRAKPMFAVKFNKSDIPGRNRAFGSYVVPEPRSSEFVEDIDLLIRKAERCLEAGADTIMIDADDVCKYADSLRADIIAKVIGRLGIEKTMFEASDAKLVEWFIKRYGPNVNLYVDHSQIMDLECLRGRHLGKDHQSVLSSSYFLF | soluble |
| MACCYNSPRRLEKSFVLDGVAVSTMAQAYSIMRPKLWSAIPPYNPQLDHHSRRYFRSRVVPPILRKTDQDHGGTGRDGWIVDYFHIFGQGQRYLNRRNWAGAGHSLQQVSGHDYYNSNPKAITTGLNGRFGYRRNTPALRQHTSVFGEVTPFPISEDIASQGLTCVFKTDV | not soluble |
| MACTGYEELRKWFLDKMVNACRAIRDQKEDQSNSAAKKAMLYIQENYNKDISLDDVSGIVNISPYYFSKIFKEETGENFIEYVTKVRIEKAKEFLAQPDISIKEAGIRSGYTDPNYFSRIFKKQTDMTPSEYKTRYGK | not soluble |
| MADAEVIILPKKHKKKKERKSLPEEDVAEIQHAEEFLIKPESKVAKLDTSQWPLLLKNFDKLNVRTTHYTPLACGSNPLKREIGDYIRTGFINLDKPSNPSSHEVVAWIRRILRVEKTGHSGTLDPKVTGCLIVCIERATRLVKSQQSAGKEYVGIVRLHNAIEGGTQLSRALETLTGALFQRPPLIAAVKRQLRVRTIYESKMIEYDPERRLGIFWVSCEAGTYIRTLCVHLGLLLGVGGQMQELRRVRSGVMSEKDHMVTMHDVLDAQWLYDNHKDESYLRRVVYPLEKLLTSHKRLVMKDSAVNAICYGAKIMLPGVLRYEDGIEVNQEIVVITTKGEAICMAIALMTTAVISTCDHGIVAKIKRVIMERDTYPRKWGLGPKASQKKLMIKQGLLDKHGKPTDSTPATWKQEYVDYSESAKKEVVAEVVKAPQVVAEAAKTAKRKRESESESDETPPAAPQLIKKEKKKSKKDKKAKAGLESGAEPGDGDSDTTKKKKKKKKAKEVELVSE | soluble |
| MADEAQAPPAEGAPPAEGEAPPPAEGAEGAVEGGEAAPPAEPAEPIKHSYTLFYFNVKALAEPLRYLFAYGNQEYEDVRVTRDEWPALKPTMPMGQMPVLEVDGKRVHQSISMARFLAKTVGLCGATPWEDLQIDIVVDTINDFRLKIAVVSYEPEDEIKEKKLVTLNAEVIPFYLEKLEQTVKDNDGHLALGKLTWADVYFAGITDYMNYMVKRDLLEPYPALRGVVDAVNALEPIKAWIEKRPVTEV | soluble |
| MADETTMRAGRGPGRACGRVSGVRILVVEDEPKMTALLARALTEEGHTVDTVADGRHAVAAVDGGDYDAVVLDVMLPGIDGFEVCARLRRQRVWTPVLMLTARGAVTDRIAGLDGGADDYLTKPFNLDELFARLRALSRRGPIPRPPTLEAGDLRLDPSEHRVWRADTEIRLSHKEFTLLEALIRRPGIVHTRAQLLERCWDAAYEARSNIVDVYIRYLRDKIDRPFGVTSLETIRGAGYRLRKDGGRHALPR | not soluble |
| MADEVIEYKFTCSSFYYGRETSQVLNTSITKGLKCVWKTRYASIAEQAFFSWEFDWNELKRLGIDSLAGNITVKSASMSPLNVQIDLRKPTEIVERAFYLRDDDYAYNSYINKTTFEYSFVPYCAQVDESLYEKMFLPSDENDAILVIGNKKLHVCKAFLSYHSSFFRAIFSSAFKEGQMSEIPIKDVTYKDFALMLSTIYPDAVFPNDRTVEKLLEMGDRFIIQSVINHVEYHLLHNTSIGNEKLMWMADRYGMPKLLVKSIQQMNSIEKAKALKSSPDYAKLSKEAKEKILDRLMALI | not soluble |
| MADIQGEDLESLYGYAKQLFDGGEIAAARNVYQLLSTLDHWNFDYLLALGLCHQRLGAHNEAVVCFGRAGLIKVDDPRAAFYAGISYRLDGNAEYASKAFKAAINWCGEQIDYQAIKASAVDMLALQQEEVPLEHHHHHH | soluble |
| MADLFDEFIEPGVKNEIMDVEEAPENPMEKLDSAKKRQAREDMTNLLANMHNDVGVGNFDEATSKRARVEEEEEVEEARMENIIVHTIRTDNENCTHEVAIPPNAEFAELRENSGTEPAKYYPFQLDAFQKQAILCIDNNQSVLVSAHTSAGKTVVATYAIAKCLREKQRVIYTSPIKALSNQKYRELEEEFKDVGLMTGDVTLNPDASCLVMTTEILRSMLYRGSEIMKEVGWVVYDEIHYMRDKERGVVWEETIILMSKNIKQAFLSATIPNARQFAQWVASIKQQPVNVVYTDYRPTPLQHWIYPVGGEGMYEVVNVKGEFREDKFRDAMSGLATAGDSAGSFNKRRTGGGTQGDSNVLKIIRSVASNDGLNCIVFSFSRKECESYAISLKDMDFNKDHEKGMVKSVYESAIAQLSPEDQKLPQILNILPLLRRGIGVHHSGLMPILKETIEILFGEGLVKVLFATETFSMGLNMPARTVVFTSARKFDGSDNRYITSGEYIQMAGRAGRRGKDDRGTVILMVDSAMSADDAKQIIKGATDPLNSQFRLTYNMVLNLMRVEGMAVSWIINNSFHQFQSYAKIPEIDKKCVQVERKIASFNFPWENEMRTLVDLQDQLEATRQRIIQIQREPKYIVGFLHAGRLFKVKSGDRDFKWGILNQFKKEQNPDDRNDQIYLCDMMIAINTEGRFDPTNPATLVPGFDLPKRRWIRVPMTIDRITAISAVRLKVPADIDKPDGQMRLDGMMAAATKRFGNQIPLLDPIQDMEIKTVEMKELIAREKSLEGRLETHSMTKRDNMKDLKKQFEQKQDAVKELNALKAERKSVQSTLHLEELNNRKRVLRRLGYLGNDDALVLKGSVACELSASDELILTEMLLKGIFNTLDVAQTAALLSCFVFQDKCAAPKLATELQTCLSELHEQARNVAKVSNECKMEVMEDKYVSSFNPGLMDVVYQWVNGATFSEIVKTTDVFEGSIIRTLRRLEEVLREMINAAKALANKELEQKFEDARKNLKRDIVFAASLYL | not soluble |
| MADLRLEREFAVAPEALFAWVSDGAKLLQWWGPEGLHVPADQHDLDFTRLGPWFSVMVNGEGQRYKVSGQVTHVKPPQSVGFTWGWHDDDDRRGAESHVMFIVEPCAKGARLILDHRELGDDEMSLRHEEGWTSSLRKLAAELALEHHHHHH | soluble |
| MADYKDIVLIQSTSSLSASLGDRVTISCRASQDIRNYLNWYQQKPDGTVKLLIYYTSRLLPGVPSRFSGSGSGTDYSLTISNLEQEDIGTYFCQQGNTLPWTFGGGTKLEIRRGGGGSGGGGSGGGGSGGGGSEVQLQQSGPELVKPGASVKISCKDSGYAFSSSWMNWVKQRPGQGPEWIGRIYPGDGDTNYNGKFKGKATLTADKSSSTAYMQLSSLTSVDSAVYFCARSGLLRYAMDYWGQGTSVTVSS | soluble |
| MAEAAQAPQQQFAIQRIYLKDVSFEAPSSPVMFQKEWNPDVKLDLDTQSRELGQGVYEVVLRLTVTVKNAEETAFLCEVQQAGIFSAEQMEAGQLAHCLGAFCPNILFPYARETISSLVVKGTFPQLNLAPVNFDALFMNYLQQQAQEGATANA | not soluble |
| MAEASIEKTQILQKYLELDQRGRIIAEYVWIDGTGNLRSKGRTLKKRITSIDQLPEWNFDGSSTNQAPGHDSDIYLKPVAYYPDPFRRGDNIVVLAACYNNDGTPNKFNHRHEAAKLFAAHKDEEIWFGLEQEYTLFDMYDDVYGWPKGGYPAPQGPYYCGVGAGKVYARDMIEAHYRACLYAGLEISGINAEVMPSQWEFQVGPCTGIDMGDQLWMARYFLHRVAEEFGIKISFHPKPLKGDWNGAGCHANVSTKEMRQPGGTKYIEQAIEKLSKRHAEHIKLYGSDNDMRLTGRHETASMTAFSSGVANRGSSIRIPRSVAKEGYGYFEDRRPASNIDPYLVTGIMCETVCGAIDNADMTKEFERESS | soluble |
| MAEASSANLGSGCEEKRHEGSSSESVPPGTTISRVKLLDTMVDTFLQKLVAAGSYQRFTDCYKCFYQLQPAMTQRIYDKFIAQLQTSIREEISDIKEEGNLEAVLNALDKIVEEGKVRKEPAWCEAQRCRVQQRCSLCVQAGGQRGSEETQALPVSMAGSPSPLPGSPGAQEGGV | not soluble |
| MAEASSLVGKLETEVEIKASAKKFHHMFTERPHHVSKATPDKIHGYGKLTVGKNKIEAVDPEKNLITFKVLEGDLMNEYKSFAFTLQVTPKQGESGSIAHWHLEYEKISEEVAHPETLLQFCVEISKEIDEHLLAEE | soluble |
| MAEATVLIPAFNEEATVGRVVRVAREAGFPVVVADDGSKDETARRALEAGAEVVRLKENRGKGGAIAEGLKAVRTPFVLLLDADLLGLRPEHLFALLKPLKEGEARMAVGVFRGGRASTDLAMRLTPFLSGQRALRLEDLRSVPGLERARYDLELLLTRHAKRAGWPVVYVPMEGVSQVMKEEKRGVLAGLGHRLRMYWEILRYRLRAR | soluble |

Source: the DeepSol protein solubility set
